Reference: patent US20240100134

Experiments:
[1] = system: recombinant human plasminogen (not fused to Fc, wild-type)
[2] = system: recombinant plasminogen-linker-Fc fusion (human plasminogen, QA linker GQAGQAS, Fc)
Sequence of recombinant plasminogen-linker-Fc fusion (human plasminogen, QA linker GQAGQAS, Fc) (chain, as listed by the source): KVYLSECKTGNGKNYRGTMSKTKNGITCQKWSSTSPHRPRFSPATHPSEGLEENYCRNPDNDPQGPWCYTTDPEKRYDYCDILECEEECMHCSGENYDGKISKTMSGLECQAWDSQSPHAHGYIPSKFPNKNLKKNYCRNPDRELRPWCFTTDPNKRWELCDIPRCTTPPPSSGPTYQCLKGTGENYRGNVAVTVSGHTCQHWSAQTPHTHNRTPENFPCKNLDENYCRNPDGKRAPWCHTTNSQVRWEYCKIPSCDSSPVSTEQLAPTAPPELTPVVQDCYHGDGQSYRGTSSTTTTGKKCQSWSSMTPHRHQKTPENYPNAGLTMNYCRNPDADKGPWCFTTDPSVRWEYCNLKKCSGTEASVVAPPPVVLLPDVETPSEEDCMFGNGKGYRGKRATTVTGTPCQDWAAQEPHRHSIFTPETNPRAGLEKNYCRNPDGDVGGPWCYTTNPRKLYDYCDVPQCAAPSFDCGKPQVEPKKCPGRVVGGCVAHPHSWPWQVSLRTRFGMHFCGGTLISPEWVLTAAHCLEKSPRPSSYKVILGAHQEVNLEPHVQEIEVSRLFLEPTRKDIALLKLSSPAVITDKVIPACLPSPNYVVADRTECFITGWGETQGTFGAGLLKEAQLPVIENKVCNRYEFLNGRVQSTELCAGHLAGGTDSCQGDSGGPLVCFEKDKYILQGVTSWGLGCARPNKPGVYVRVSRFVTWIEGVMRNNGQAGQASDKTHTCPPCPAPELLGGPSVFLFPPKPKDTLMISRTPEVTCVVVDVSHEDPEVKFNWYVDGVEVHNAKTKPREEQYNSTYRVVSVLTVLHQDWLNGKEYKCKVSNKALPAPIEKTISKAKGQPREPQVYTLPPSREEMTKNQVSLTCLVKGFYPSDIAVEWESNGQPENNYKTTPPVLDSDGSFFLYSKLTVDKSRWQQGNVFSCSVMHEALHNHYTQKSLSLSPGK

Sequence of recombinant human plasminogen (not fused to Fc, wild-type) (chain, as listed by the source): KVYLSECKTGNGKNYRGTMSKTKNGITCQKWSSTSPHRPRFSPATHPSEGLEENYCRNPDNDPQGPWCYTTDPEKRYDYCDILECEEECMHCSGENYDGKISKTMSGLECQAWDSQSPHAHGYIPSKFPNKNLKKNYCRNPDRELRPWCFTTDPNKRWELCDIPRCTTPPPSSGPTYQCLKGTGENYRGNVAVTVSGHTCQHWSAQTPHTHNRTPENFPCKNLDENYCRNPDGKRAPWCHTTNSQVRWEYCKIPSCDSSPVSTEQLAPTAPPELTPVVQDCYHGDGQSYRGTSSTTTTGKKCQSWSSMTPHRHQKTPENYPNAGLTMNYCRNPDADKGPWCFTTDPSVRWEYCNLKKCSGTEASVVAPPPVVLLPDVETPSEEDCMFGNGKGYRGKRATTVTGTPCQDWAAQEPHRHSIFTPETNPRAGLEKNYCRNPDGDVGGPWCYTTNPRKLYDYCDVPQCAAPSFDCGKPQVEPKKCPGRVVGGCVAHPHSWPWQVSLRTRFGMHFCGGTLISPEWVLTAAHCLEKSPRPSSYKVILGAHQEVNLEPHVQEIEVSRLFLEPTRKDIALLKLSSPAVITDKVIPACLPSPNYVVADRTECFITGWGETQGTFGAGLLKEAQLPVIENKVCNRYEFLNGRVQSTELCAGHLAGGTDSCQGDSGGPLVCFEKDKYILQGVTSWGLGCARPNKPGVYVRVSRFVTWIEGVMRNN

urokinase-type plasminogen activator
Michelis-Menten analysis of activation (KM and Vmax), 10 mM EACA [1]: the kinetics of rPlg and rPlg-Fc activation are similar (as indicated by the KM and Vmax)
activation measured by the hydrolysis of plasmin fluorogenic substrate H-Ala-Phe-Lys-AMC [1]: In the presence of tPA or uPA, comparable hydrolytic activity for rPlg and rPlg-Fc is observed
Michelis-Menten analysis of activation (KM and Vmax), 10 mM EACA [2]: the kinetics of rPlg and rPlg-Fc activation are similar (as indicated by the KM and Vmax)
activation measured by the hydrolysis of plasmin fluorogenic substrate H-Ala-Phe-Lys-AMC [2]: In the presence of tPA or uPA, comparable hydrolytic activity for rPlg and rPlg-Fc is observed
